Test results published in the DeepSol protein solubility set.

Assay: soluble on expression in E. coli; label from the status in PepcDB or PDB records
With “MGSDKIHHHHHHMRILLSVSRFEDELIEILDRLDETYEIFADNDCFEILKDRIPRIRPFERDDFDLLYLNWRDLPSEKREEKILSTIDENRTLLFLKAIKNYREKLVVTTLEDLKLTFSEIERAGDVSLQTRRYLLLKGLAHFLKVHSEVLESLSDLFFIKDWKAIVLERLQEGIKAPVSLLPVSIPPELVEDIGLASHLIRFLPQKACVLVKNGKIVYASSTGDLPEIEGGVFALKGVFRGEKKFDFILAEDFEGDVEGLRIKDLLHQEEGLVLLGASGYLREPVPTNDFTEVLSMHPVFDSCAVTKEGKLVLHVVELNRSDVINALEKIDLSGTEVAFNFPISDEEKAELKQKGVKKVSWIDSRRIWRRC” the “soluble on expression in E. coli” value was “not soluble”.
In the case of “MGSDKIHHHHHHMTKKKIGIGFGTWAWGNKLVWDYKAETDDILLKKTFFDAINGGLDLIDSADSYGTGSLFGQSEKLIGDFLEELPKRKLKKVTIATKLAPFPWRIGRNGLDNAFQESNQRLKGNMTRVQLHWSTYRYAPWQEEQLLNGLGDLYEEGLIKEIGLSNTGPKRLNFLFQKLKKRGIKIKSIQMQLSLLTKPSLEDENIKIICDENEIEYLAYSPLGLGILTVPPNQSPKPTTFLRKSLYQRILPKTIELRTLLTHIGKKYSASQAEVALNWVRSHGAKPIVGIRNPNQAKDAISALNWSLTKSEKQKLDFCRNACLANMPLNPFTSP”, the “soluble on expression in E. coli” value is reported as “not soluble”.
In the case of “MKKGTPLPHSDELDAGNVLAVENLNIAFMQDQQKIAAVRNLSFSLQRGETLAIVGESGSGKSVTALALMRLLEQAGGLVQCDKMLLQRRSREVIELSEQNAAQMRHVRGADMAMIFQEPMTSLNPVFTVGEQIAESIRLHQNASREEAMVEAKRMLDQVRIPEAQTILSRYPHQLSGGMRQRVMIAMALSCRPAVLIADEPTTALDVTIQAQILQLIKVLQKEMSMGVIFITHDMGVVAEIADRVLVMYQGEAVETGTVEQIFHAPQHPYTRALLAAVPQLGAMKGLDYPRRFPLISLEHPAKQAPPIEQKTVVDGEPVLRVRNLVTRFPLRSGLLNRVTREVHAVEKVSFDLWPGETLSLVGESGSGKSTTGRALLRLVESQGGEIIFNGQRIDTLSPGKLQALRRDIQFIFQDPYASLDPRQTIGDSIIEPLRVHGLLPGKDAAARVAWLLERVGLLPEHAWRYPHEFSGGQRQRICIARALALNPKVIIADEAVSALDVSIRGQIINLLLDLQRDFGIAYLFISHDMAVVERISHRVAVMYLGQIVEIGPRRAVFENPQHPYTRKLLAAVPVAEPSRQRPQRVLLSDDLPSNIHLRGEEVAAVSLQCVGPGHYVAQPQSEYAFMRR”, the “soluble on expression in E. coli” value is reported as “not soluble”.
For “MGHHHHHHSHQADEGQARKSQLQRRFKEFLRQYRVGTDRTGFTFKYRDELKRHYNLGEYWIEVEMEDLASFDEDLADYLYKQPAEHLQLLEEAAKEVADEVTRPRPSGEEVLQDIQVMLKSDASPSSIRSLKSDMMSHLVKIPGIIIAASAVRAKATRISIQCRSCRNTLTNIAMRPGLEGYALPRKCNTDQAGRPKCPLDPYFIMPDKCKCVDFQTLKLQELPDAVPHGEMPRHMQLYCDRYLCDKVVPGNRVTIMGIYSIKKFGLTTSRGRDRVGVGIRSSYIRVLGIQVDTDGSGR”, the “soluble on expression in E. coli” value was “not soluble”.
For “MEMMPNIEELRKMRKNLGISQKDLAKVTGVSQSYIARLEKGTINPTYSKIKAIYEYLTKSSEKASTMVLTCDRIMTRNVVVCRSDESILNALNIMRDKGFSQLPVVNEENKVIGTIAENNINDMLLKGMSIDSLRGLTVRRVMSDVLPQVDRNTPVNIIYQLLKYSNAVLVIEAGNLVGIITKADILKTVAGMI”, the “soluble on expression in E. coli” value was “not soluble”.
For “PSARDILQQGLDRLGSPEDLASRIDSTLLSPRATEEDVRNLVREASDYGFRCAVLTPVYTVKISGLAEKLGVKLCSVIGFPLGQAPLEVKLVEAQTVLEAGATELDVVPHLSLGPEAVYREVSGIVKLAKSYGAVVKVILEAPLWDDKTLSLLVDSSRRAGADIVKTSTGVYTKGGDPVTVFRLASLAKPLGMGVKASGGIRSGIDAVLAVGAGADIIGTSSAVKVLESFKSLV”, the “soluble on expression in E. coli” value was “soluble”.
With “IDGDSITNKQIKKFWRQKQIIEEDHLYSAIKAAARVRARNLSDEDYKRFEESLDMEDLETEDHQGLKDWWTKSKYAYLNQPALGSADSLKRKRFSTYTPNCFSFKPCNPLYATSLNVF” the “soluble on expression in E. coli” value was “not soluble”.
For “MKVTPINDYKDIHQDKETVLVLGYFDALHRGHKVLFDKARQIADEKQLEVAVFTFNESPQLTFQRYTDDLLLHITAPQRRCDLFKAYGTDQLYLTDFNSDFARTSSDDFITRYINRLKAQEIVVGFDYKFGHHRTDTDYLDRNFSGTVHVIEEQQSGGEKISSTRVRQLIREGNVKEANNLLGHEFSTRGIVVHGDARGRTIGFPTANLAPIDRTILPADGVYVADVVIDGKRYRSMTSLGKNVTFGGTELRLEANIFDFEGDIYGKTIEVFWLDYIRDMIKFNNIDELCDQLKADKKIAEKL”, the “soluble on expression in E. coli” value was “not soluble”.
For “MGSDKIHHHHHHMHTVAVERAARYDPSEVAEAMDRALASLGGMDTFVRPGERVLIKPNMLAAKAPERAVTTHPEVLRAVIRLVRKAGGIPLVGDSPGIGGFRAVAEKSGMAAVVREAGAELVPFDEAVAVPGSGLFRRMDVARPYLEADRLINLPKLKTHEMMTMTCAVKNLFGAVVGTAKAGWHLKAGADRELFARLLLEIYLLRPPDLTIVDGIVAMEGDGPGSGDPRPMGLILAGANAVAVDVVAAELAGIPKQLLWVERAAERLGIDGWDRSRIATVGLPPDDARVPDFRLPHLSDVQFGIPGFLKNRLRHHLTARPVPNPEGCHLCGACLDACPPRAISVRDGRLHFDYHACIRCFCCRELCPDGSLGVRDGVLLKLLKKFKE”, the “soluble on expression in E. coli” value was “not soluble”.
With “MQSPEKIDPTWEDSVIDSFISFVRSYDGDFTCIYKLADTVSDEYSLQKIIDFLSSTPQGKQAFQKRPQLGVVDLPKLHQLPTDTLGYVYADQMLQNNLQPLQSHEIDNDYQFFKTHITETHDLWHIVTGADTSILGEIQLEAFYVSQLYASRFWLALLAKNLLKAVIYDIELSTPYMDAISTGWVMAKQAKPLFGLEWNLLWEKPLADVRTSLNIILPVNLEHHHHHH” the “soluble on expression in E. coli” value was “soluble”.
With “MGSDKIHHHHHHMKIGFLSRWGATCGVGMHAEILAREFIRMGHEVVVFAPTEESASKEVKYYKRTEAQDPEFVKREIYTEVDNVTEEGWVKEEEILKENLDLLIIETFWRVPVKPLTRLIEKLKIPVISVFHEANIFKAREVVKLPCDKIVVFDRRFYDEILEFYEIPREKVEVISYPVMKPYDAEPERPVSEDKFLFFSFGRQPVEEYCDFLNALKKLRKRFDNVHYWIIRSDGRVDYEAEWITQWQKRPTVEKLYSYLKGSNVHLLPKGNTPNVVVSSTLYQIIASETPIVIRDSRFVETIETDVYGFGPIVKYRNIHDLVHKLELLMLDRELVEDIKKEVRVFVEKYGGDKIAQEFLDLAKTITK” the “soluble on expression in E. coli” value was “not soluble”.
In the case of “MGSDKIHHHHHHMEQQIPFSYVIISPENATEKEGYMISTIDKCGFFFCQKGEVEVALNDKSYLISKGSVCIYMTGSLLRIQRISKDIKGIMLEVDLNYIIPIVNKIVNSENLLYLRENPCFSITEYQYNYLEQLIKALQQRMDIKAHDIPLQRQHLISELIKSWGQTLCYELLNVYFTNQPLKPLSQDKKDKIFQNFVITLFRYYQQERDVTFYASKQYLSSRYFSAVIKEKSGSTALQWIVQMVITEAKQLLENSDLTIKEIATKLNFPTQSFFGKYFKQYVGVSPKEYRNKQIRQLPF”, the “soluble on expression in E. coli” value is reported as “not soluble”.
In the case of “MELSSPGVGSGLDVKNLVDAIVTAEITPSQVRHDKQLNSVNTELSALGQLKSYLTNLQTSLAKLSSLSQFYTMKSTISDPNYFSATLGTGATKNTYQIEIQKLAQQHS”, the “soluble on expression in E. coli” value is reported as “not soluble”.
For “SASKIKGRPPKQPKVTPALPSNDSQQLHENNPGNNLALETCGESSSSHGTGGPKPGPSKKTLNERKRKYGVSVNKTVQNIEWNVDHFLKVQHERRQELYKDYSHQFLTLVMMWNIDVDQIKKQAGKLSDILDEQQKLFQQFQSIHMQKIEEFKELCDRHLKNLQAIKCCRRKAIIEEARKLMDYLEKRVTEETVHVNKQEAKDGVQSSLLSLLIS”, the “soluble on expression in E. coli” value was “soluble”.
For “MAHKSKSPYLMYPEKEPFPILNKHSHYDHLFEEMYELEEKGEILVFRITEEYRPKYVYTRTGRIKVIPTNKLWHHKSCGQCGNIPGYPASIFWFMNKFGLDYLNEPHQTSCTAWNYHGSGTSNPVALAAVWLRNMHQAWKTGYYPLIHCGTSFGSYKETREQLIFNKELREAVKPILKKLGRLTEDGRIVIPQEIVHYSEWVHAMRDGNSRPLRKRKESPKE”, the “soluble on expression in E. coli” value was “not soluble”.
For “MGHHHHHHSHMPTDNDLKAAILELLRDLDVLLVAHFYQKDEIVELAHYTGDSLELAKIASQSDKNLIVFCGVHFMGESVKALAFDKQVIMPKLSCCSMARMIDSHYYDRSVHLLKECGVKEFYPITYINSNAEVKAKVAKDDGVVCTSRNASKIFNHALKQNKKIFFLPDKCLGENLALENGLKSAILGANSQEEIKNADVVCYNGFCSVHQLFKLEDIEFYRQKYPDILIAVHPECEPSVVSNADFSGSTSQIIEFVEKLSPNQKVAIGTESHLVNRLKAKRHHQNTFILSSTLALCPTMNETTLKDLFEVLKAYKNHRAYNTIELKDEVARLAKLALTKMMELS”, the “soluble on expression in E. coli” value was “not soluble”.
For “MKNIAIIGASGYTGAQLTALVHAESELSIQGLYVSENSLDKGRALADLYPVYSHIELTLSPLTEEAKANIVAEADAVVLATEHSVSLHLAAWFYSQGLAVFDLSGAYRFSDVAQYPKWYGFEHEYPEVLAKAVYGLAEWNAKDVAATKMIAVPGCYPTASLTALKPLKNLLTSAYPVINAVSGVTGAGRKAQLHTSFCEVSLTPYGVLGHRHQPEIATQLGQEVIFTPHLGNFKRGILATITVQLKPGTTTADVAAAYSVYDQAPLVTVKQNQFPKVDDVVLTPNCHLGWKFDESSGYLVVASAIDNLMKGAASQALQCIKIHFNL”, the “soluble on expression in E. coli” value was “not soluble”.
For “METIFEDEETMMAAEQSSSGISANSNSNCSASKTEKASKKPKNAIPKVKNSGIHKKPAKSDFDEFLSSMKSRLSQATSMKSNKEQLKMLEETQKLIFDRITKSADARDMEHLEKQMNKL”, the “soluble on expression in E. coli” value was “soluble”.
With “MSLGEAEARVVLNMNTGWAFHRGEVESGGQPGLDDSGWIAAIIPHIMQLEKKHCGGDIIYDGVGWYRRTFRVPSQYKDKQIKISFEGVMNACEVYLNGQKISAHRGGYVGFVTDITTRINWDRDNLLAVRVSAEYDPLTPPGKPQAGMDFYYYSGIYRDVEMVISDPLHITHALEEEEVAGGGIFVTYPVVGKEKAVTHVKAHVRNEGKRKRKAQLRTQLIDKSGKIVACQLTPFRLSAGEAIHLEQNLEIVHPSLWHPYDPNLYTLQNEIVENGKVVDCHTESIGIRTIAYTRDGGFYINGESLYLRGANRHQAFAHIGDAAANSMQERDVIDLKRGGCNAVRAAHYPQDPAFLAACDKYGLLVVECIPGWQYFKNDSTFISRLYEVGKQMIRRDRNHPSVILWETALNESRYPAEIARNLYAIAHIEYPGDQMYTAGDYFGHADRVDCFDVFYKQVSRFPKDGDVMSNYPEDQIAVKPLFCREWGDGVGEKPRVSLMENEEEQLKQCRGRFLQLNGHGYFDWCMLDANPRMGGHFLWSYNDYARGAEQETMFCGIVDINRYPKFSYYMMQSMRDKEISQEGHHHHHH” the “soluble on expression in E. coli” value was “soluble”.
With “MKNTGTSVKFGESSTQALIRAAYRQVFGRDLYEGQRLSVAEIQLENGDISVREFIKRLAKSELFLKLYWAPHYVCKAIEYMHRRLLGRPTYGRQEMNQYFDIASKQGFYAVVEAMIDSKEYSDAFGEDTVPYERYLTPGGLEHHHHHH” the “soluble on expression in E. coli” value was “not soluble”.
With “MNLHQTVEHEAAAAFAAAGIAGSPVVLQPTKNAEHGDFQINGVMGAAKKAKQNPRELAQKVADALAGNAVIESAEVAGPGFINLRLRHEFLAQNIHAALNDARF” the “soluble on expression in E. coli” value was “not soluble”.
For “MLPQRLKKAITDNPKKLGNLIDLVNLPSTLRNFVGQSQISRLGCFMRVWSYIKTNNLQDPKNKNVVICDEKLKSILLGKQRVELVDLPSLIKLHFPKEQKKNSQKI”, the “soluble on expression in E. coli” value was “not soluble”.
